Measured values reported in patent US20110008345A1 (GlaxoSmithKline, published 2011).
Changes are numbered by the printed parent chain. In names and notes the source's numbering stands. Several values for one entry are separate records, joined by “and”; a condition that tells them apart may be missing. Identical values can stand only once.

Columns and labels:
[1] = target: T1, recombinant E. coli-expressed human IL-13 (human, UniProt P35225 35-146); assay: SPR stoichiometry
T1 construct: made and purified at GSK; also called Interleukin-13; rhIL-13

[2] = target: T2, recombinant E. coli-expressed human IL-4 (human, UniProt P05112 25-153); assay: SPR stoichiometry
T2 construct: made and purified at GSK; also called Interleukin-4; rhIL-4
T2 sequence: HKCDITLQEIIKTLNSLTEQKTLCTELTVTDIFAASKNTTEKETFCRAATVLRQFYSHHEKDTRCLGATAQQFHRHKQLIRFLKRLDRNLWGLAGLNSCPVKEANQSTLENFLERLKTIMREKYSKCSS

[3] = target: T2, recombinant E. coli-expressed human IL-4; assay: SPR exp 1
[4] = target: T1, recombinant E. coli-expressed human …; assay: SPR, purified
[5] = target: T2, recombinant E. coli-expressed human IL-4; assay: SPR, purified
[6] = target: T1, recombinant E. coli-expressed human …; assay: SPR exp 1
[7] = target: T3, recombinant E. coli-expressed cynomolgus IL-4 (cynomolgus, UniProt P79339 25-153); assay: SPR
T3 construct: also called cyno IL-4
T3 sequence (looked up): T2 sequence with E26K, V29I, F33L

[8] = target: T4, recombinant E. coli-expressed cynomolgus IL-13 (cynomolgus, UniProt Q0PW92 21-132); assay: SPR
T4 construct: also called cyno IL-13

[9] = target: T2, recombinant E. coli-expressed human IL-4; assay: SPR exp 2
[10] = target: T1, recombinant E. coli-expressed human …; assay: SPR exp 2
[11] = target: T2, recombinant E. coli-expressed human IL-4; assay: ELISA, IL-4 binding to IL4Ralpha-Fc
[12] = target: T1, recombinant E. coli-expressed human …; assay: SPR
[13] = target: T2, recombinant E. coli-expressed human IL-4; assay: ELISA
recombinant human VEGF = target: T5, recombinant human VEGF (human, UniProt P15692-4 27-191); assay: ELISA
T5 construct: also called VEGF165; hVEGF165

[14] = target: T1, recombinant E. coli-expressed human …; assay: SPR; remark: listed apart in the source

B1: PascoH-G4S-474 (bispecific antibody, human IgG1, kappa)
heavy: not shown
light: DIVLTQSPSSLSASVGDRVTITCKASQSVDYDGDSYMNWYQQKPGKAPKLLIYAASNLESGIPSRFSGSGSGTDFTFTISSLQPEDIATYYCQQSNEDPPTFGQGTKVEIKRTVAAPSVFIFPPSDEQLKSGTASVVCLLNNFYPREAKVQWKVDNALQSGNSQESVTEQDSKDSTYSLSSTLTLSKADYEKHKVYACEVTHQGLSSPVTKSFNRGEC
A Stoichiometry [1] of 1.9, a Stoichiometry [2] of 1.8 and a Kd [3] of 0.02 nM were found for B1 in this work. The koff [3] was 8.6e-05 s⁻¹, the kon [3] was 5.1e+06 M⁻¹ s⁻¹ and the Kd [4] was 0.58 nM. For the same binder, the Kd [5] was 0.036 nM, the Kd [6] was 0.67 nM and the koff [6] was 0.00026 s⁻¹. For the same binder, the kon [6] was 390000 M⁻¹ s⁻¹.

B2: PascoH-TVAAPS-474 (bispecific antibody, human IgG1, kappa)
heavy: not shown
light: B1 light
A Kd [7] of 0.0491 nM, a koff [7] of 8.85e-05 s⁻¹ and a kon [7] of 1.8e+06 M⁻¹ s⁻¹ were found for B2 in this work. It also gave a Kd [8] of 27.1 nM, a koff [8] of 0.0117 s⁻¹ and a kon [8] of 433000 M⁻¹ s⁻¹. It also gave a Kd [3] of 0.02 nM, a koff [3] of 9.7e-05 s⁻¹ and a kon [3] of 5.5e+06 M⁻¹ s⁻¹. The Kd [6] was 0.94 nM, the koff [6] was 0.00042 s⁻¹ and the kon [6] was 450000 M⁻¹ s⁻¹.

B3: PascoH-ASTKG-474 (bispecific antibody, human IgG1, kappa)
heavy: not shown
light: B1 light
A Kd [7] of 0.0445 nM, a koff [7] of 7.9e-05 s⁻¹ and a kon [7] of 1.78e+06 M⁻¹ s⁻¹ were found for B3 in this work. The Kd [8] was 29.5 nM, the koff [8] was 0.0107 s⁻¹ and the kon [8] was 364000 M⁻¹ s⁻¹. For the same binder, the Kd [3] was 0.02 nM, the koff [3] was 8.6e-05 s⁻¹ and the kon [3] was 5.3e+06 M⁻¹ s⁻¹. It also gave a Kd [6] of 1.5 nM, a koff [6] of 0.00046 s⁻¹ and a kon [6] of 310000 M⁻¹ s⁻¹.

B4: PascoL-474 (bispecific antibody, human IgG1, kappa)
heavy: not shown
light: DIVLTQSPSSLSASVGDRVTITCKASQSVDYDGDSYMNWYQQKPGKAPKLLIYAASNLESGIPSRFSGSGSGTDFTFTISSLQPEDIATYYCQQSNEDPPTFGQGTKVEIKRTVAAPSVFIFPPSDEQLKSGTASVVCLLNNFYPREAKVQWKVDNALQSGNSQESVTEQDSKDSTYSLSSTLTLSKADYEKHKVYACEVTHQGLSSPVTKSFNRGECGSGVQLLESGGGLVQPGGSLRLSCAASGFTFAWYDMGWVRQAPGKGLEWVSSIDWHGEVTYYADSVKGRFTISRDNSKNTLYLQMNSLRAEDTAVYYCATAEDEPGYDYWGQGTLVTVSS
B4 was tested, and the Kd [9] was 0.065 nM and 0.048 nM, the koff [9] was 0.000184 s⁻¹ and 0.000122 s⁻¹ and the kon [9] was 2.8e+06 M⁻¹ s⁻¹ and 2.53e+06 M⁻¹ s⁻¹. The Kd [10] was 1.34 nM and 1.24 nM, the koff [10] was 0.000382 s⁻¹ and 0.000386 s⁻¹ and the kon [10] was 286000 M⁻¹ s⁻¹ and 312000 M⁻¹ s⁻¹.

B5: PascoL-ASTKG-474 (bispecific antibody, human IgG1, kappa)
heavy: not shown
light: DIVLTQSPSSLSASVGDRVTITCKASQSVDYDGDSYMNWYQQKPGKAPKLLIYAASNLESGIPSRFSGSGSGTDFTFTISSLQPEDIATYYCQQSNEDPPTFGQGTKVEIKRTVAAPSVFIFPPSDEQLKSGTASVVCLLNNFYPREAKVQWKVDNALQSGNSQESVTEQDSKDSTYSLSSTLTLSKADYEKHKVYACEVTHQGLSSPVTKSFNRGECASTKGPTGSGVQLLESGGGLVQPGGSLRLSCAASGFTFAWYDMGWVRQAPGKGLEWVSSIDWHGEVTYYADSVKGRFTISRDNSKNTLYLQMNSLRAEDTAVYYCATAEDEPGYDYWGQGTLVTVSS
B5 was tested, and the Kd [9] was 0.041 nM and 0.06 nM, the koff [9] was 0.000121 s⁻¹ and 0.000152 s⁻¹ and the kon [9] was 2.95e+06 M⁻¹ s⁻¹ and 2.54e+06 M⁻¹ s⁻¹. The Kd [10] was 0.451 nM and 0.595 nM, the koff [10] was 0.000238 s⁻¹ and 0.00032 s⁻¹ and the kon [10] was 526000 M⁻¹ s⁻¹ and 538000 M⁻¹ s⁻¹.

B6: PascoL-EPKSC-474 (bispecific antibody, human IgG1, kappa)
heavy: not shown
light: DIVLTQSPSSLSASVGDRVTITCKASQSVDYDGDSYMNWYQQKPGKAPKLLIYAASNLESGIPSRFSGSGSGTDFTFTISSLQPEDIATYYCQQSNEDPPTFGQGTKVEIKRTVAAPSVFIFPPSDEQLKSGTASVVCLLNNFYPREAKVQWKVDNALQSGNSQESVTEQDSKDSTYSLSSTLTLSKADYEKHKVYACEVTHQGLSSPVTKSFNRGECEPKSCDKTHTCPPCPGSGVQLLESGGGLVQPGGSLRLSCAASGFTFAWYDMGWVRQAPGKGLEWVSSIDWHGEVTYYADSVKGRFTISRDNSKNTLYLQMNSLRAEDTAVYYCATAEDEPGYDYWGQGTLVTVSS
In the case of B6, the Kd [9] is reported as 0.139 nM and 0.127 nM, the koff [9] is reported as 0.000258 s⁻¹ and 0.000318 s⁻¹ and the kon [9] is reported as 1.86e+06 M⁻¹ s⁻¹ and 2.51e+06 M⁻¹ s⁻¹. The Kd [10] was 0.801 nM and 0.815 nM, the koff [10] was 0.000334 s⁻¹ and 0.000286 s⁻¹ and the kon [10] was 417000 M⁻¹ s⁻¹ and 351000 M⁻¹ s⁻¹.

B7: 586H-210 (bispecific antibody, human IgG1, kappa)
heavy: not shown
light: DIVMTQSPLSLPVTPGEPASISCRSSQNIVHINGNTYLEWYLQKPGQSPRLLIYKISDRFSGVPDRFSGSGSGTDFTLKISRVEADDVGIYYCFQGSHVPWTFGQGTKLEIKRTVAAPSVFIFPPSDEQLKSGTASVVCLLNNFYPREAKVQWKVDNALQSGNSQESVTEQDSKDSTYSLSSTLTLSKADYEKHKVYACEVTHQGLSSPVTKSFNRGEC
An IC50 [11] of 26.8 nM and a Kd [12] of 0.44 nM were found for B7 in this work.

B8: 586H-G4S-210 (bispecific antibody, human IgG1, kappa)
heavy: not shown
light: B7 light
An IC50 [11] of 29.9 nM and a Kd [12] of 0.42 nM were found for B8 in this work.

B9: PascoHL-G4S-474 (bispecific antibody, human IgG1, kappa)
heavy: not shown
light: DIVLTQSPSSLSASVGDRVTITCKASQSVDYDGDSYMNWYQQKPGKAPKLLIYAASNLESGIPSRFSGSGSGTDFTFTISSLQPEDIATYYCQQSNEDPPTFGQGTKVEIKRTVAAPSVFIFPPSDEQLKSGTASVVCLLNNFYPREAKVQWKVDNALQSGNSQESVTEQDSKDSTYSLSSTLTLSKADYEKHKVYACEVTHQGLSSPVTKSFNRGECGGGGSGVQLLESGGGLVQPGGSLRLSCAASGFTFAWYDMGWVRQAPGKGLEWVSSIDWHGEVTYYADSVKGRFTISRDNSKNTLYLQMNSLRAEDTAVYYCATAEDEPGYDYWGQGTLVTVSS
A Stoichiometry [1] of 3.5, a Stoichiometry [2] of 1.7 and a Kd [4] of 0.87 nM were found for B9 in this work. For the same binder, the Kd [5] was 0.035 nM.

B10: 586H-ASTKG-210 (bispecific antibody, human IgG1, kappa)
heavy: not shown
light: B7 light
An IC50 [11] of 27.3 nM and a Kd [12] of 0.4 nM were found for B10 in this work.

B11: 586H-EPKSC-210 (bispecific antibody, human IgG1, kappa)
heavy: not shown
light: B7 light
B11 was tested, and the Kd [12] was 0.43 nM and the binding result [13] was “binds”.

B12: 586H-ELQLE-210 (bispecific antibody, human IgG1, kappa)
heavy: not shown
light: B7 light
B12 was tested, and the Kd [12] was 0.43 nM and the binding result [13] was “binds”.

B13: BPC1803 (bispecific antibody, human IgG1, kappa)
heavy: not shown
light: DIVMTQSPLSLPVTPGEPASISCRSSQSIVQSNGDTYLEWYLQKPGQSPQLLIYRVSNRFSGVPDRFSGSGSGTDFTLKISRVEAEDVGVYYCFQGSHVPYTFGQGTKLEIKRTVAAPSVFIFPPSDEQLKSGTASVVCLLNNFYPREAKVQWKVDNALQSGNSQESVTEQDSKDSTYSLSSTLTLSKADYEKHKVYACEVTHQGLSSPVTKSFNRGEC
notes: anti-VEGF tear lipocalin fusion; also called antiIGF1R Heavy Chain-GS-TLPC
B13: binds (recombinant human VEGF).

B14: BPC1804 (bispecific antibody, human IgG1, kappa)
heavy: not shown
light: B13 light
notes: anti-VEGF tear lipocalin fusion
B14: binds (recombinant human VEGF).

B15: anti-CD20 mAb (antibody, human IgG1, kappa, V domains shown)
VH: QVQLQQPGAELVKPGASVKMSCKASGYTFTSYNMHWVKQTPGRGLEWIGAIYPGNGDTSYNQKFKGKATLTADKSSSTAYMQLSSLTSEDSAVYYCARSTYYGGDWYFNVWGAGTLVTVSS
VL: QIVLSQSPAILSASPGEKVTMTCRASSSVSYIHWFQQKPGSSPKPWIYATSNLASGVPVRFSGSGSGTSYSLTISRVEAEDAATYYCQQWTSNPPTFGGGTKLEIKR
notes: also called Rituxan; anti-CD20 control antibody
B15: no binding [14].
